Results as given in patent US20050260177A1.

Legend:
[1] = biological target: Ra12 protein (Mycobacterium tuberculosis); assay: ELISA, Ra12 on plate, serum 1:1024000, average of 2 wells
[2] = biological target: Ra12 protein (Mycobacterium tuberculosis); assay: ELISA, Ra12 on plate, serum 1:512000, well 2
[3] = biological target: Ra12 protein (Mycobacterium tuberculosis); assay: ELISA, Ra12 on plate, serum 1:128000, average of 2 wells
[4] = biological target: Ra12 protein (Mycobacterium tuberculosis); assay: ELISA, Ra12 on plate, serum 1:1024000, well 1
[5] = biological target: Ra12 protein (Mycobacterium tuberculosis); assay: ELISA, Ra12 on plate, serum 1:256000, well 1
[6] = biological target: Ra12 protein (Mycobacterium tuberculosis); assay: ELISA, Ra12 on plate, serum 1:1024000, well 2
[7] = biological target: Ra12 protein (Mycobacterium tuberculosis); assay: ELISA, Ra12 on plate, serum 1:2000, average of 2 wells
[8] = biological target: Ra12 protein (Mycobacterium tuberculosis); assay: ELISA, Ra12 on plate, serum 1:256000, average of 2 wells
[9] = biological target: Ra12 protein (Mycobacterium tuberculosis); assay: ELISA, Ra12 on plate, serum 1:256000, well 2
[10] = biological target: Ra12 protein (Mycobacterium tuberculosis); assay: ELISA, Ra12 on plate, serum 1:128000, well 1
[11] = biological target: Ra12 protein (Mycobacterium tuberculosis); assay: ELISA, Ra12 on plate, serum 1:2000, well 1
[12] = biological target: Ra12 protein (Mycobacterium tuberculosis); assay: ELISA, Ra12 on plate, serum 1:64000, well 1
[13] = biological target: Ra12 protein (Mycobacterium tuberculosis); assay: ELISA, Ra12 on plate, serum 1:8000, well 2
[14] = biological target: Ra12 protein (Mycobacterium tuberculosis); assay: ELISA, Ra12 on plate, serum 1:16000, well 1
[15] = biological target: Ra12 protein (Mycobacterium tuberculosis); assay: ELISA, Ra12 on plate, serum 1:128000, well 2
[16] = biological target: Ra12 protein (Mycobacterium tuberculosis); assay: ELISA, Ra12 on plate, serum 1:4000, average of 2 wells
[17] = biological target: Ra12 protein (Mycobacterium tuberculosis); assay: ELISA, Ra12 on plate, serum 1:512000, well 1
[18] = biological target: Ra12 protein (Mycobacterium tuberculosis); assay: ELISA, Ra12 on plate, serum 1:16000, well 2
[19] = biological target: Ra12 protein (Mycobacterium tuberculosis); assay: ELISA, Ra12 on plate, serum 1:32000, well 1
[20] = biological target: Ra12 protein (Mycobacterium tuberculosis); assay: ELISA, Ra12 on plate, serum 1:1000, average of 2 wells
[21] = biological target: Ra12 protein (Mycobacterium tuberculosis); assay: ELISA, Ra12 on plate, serum 1:4000, well 2
[22] = biological target: Ra12 protein (Mycobacterium tuberculosis); assay: ELISA, Ra12 on plate, serum 1:1000, well 1
[23] = biological target: Ra12 protein (Mycobacterium tuberculosis); assay: ELISA, Ra12 on plate, serum 1:16000, average of 2 wells
[24] = biological target: Ra12 protein (Mycobacterium tuberculosis); assay: ELISA, Ra12 on plate, serum 1:32000, well 2
[25] = biological target: Ra12 protein (Mycobacterium tuberculosis); assay: ELISA, Ra12 on plate, serum 1:512000, average of 2 wells
[26] = biological target: Ra12 protein (Mycobacterium tuberculosis); assay: ELISA, Ra12 on plate, serum 1:1000, well 2
[27] = biological target: Ra12 protein (Mycobacterium tuberculosis); assay: ELISA, Ra12 on plate, serum 1:4000, well 1
[28] = biological target: Ra12 protein (Mycobacterium tuberculosis); assay: ELISA, Ra12 on plate, serum 1:32000, average of 2 wells
[29] = biological target: Ra12 protein (Mycobacterium tuberculosis); assay: ELISA, Ra12 on plate, serum 1:8000, average of 2 wells
[30] = biological target: Ra12 protein (Mycobacterium tuberculosis); assay: ELISA, Ra12 on plate, serum 1:8000, well 1
[31] = biological target: Ra12 protein (Mycobacterium tuberculosis); assay: ELISA, Ra12 on plate, serum 1:64000, well 2
[32] = biological target: Ra12 protein (Mycobacterium tuberculosis); assay: ELISA, Ra12 on plate, serum 1:2000, well 2
[33] = biological target: Ra12 protein (Mycobacterium tuberculosis); assay: ELISA, Ra12 on plate, serum 1:64000, average of 2 wells

What does the source list for Preimmune sera (antibody)?
ELISA absorbance at 450 nm [1]: 0.16 OD450; ELISA absorbance at 450 nm [2]: 0.16 OD450; ELISA absorbance at 450 nm [3]: 0.14 OD450; ELISA absorbance at 450 nm [4]: 0.16 OD450; ELISA absorbance at 450 nm [5]: 0.15 OD450; ELISA absorbance at 450 nm [6]: 0.16 OD450; ELISA absorbance at 450 nm [7]: 0.16 OD450; ELISA absorbance at 450 nm [8]: 0.15 OD450; ELISA absorbance at 450 nm [9]: 0.15 OD450; ELISA absorbance at 450 nm [10]: 0.15 OD450; ELISA absorbance at 450 nm [11]: 0.15 OD450; ELISA absorbance at 450 nm [12]: 0.14 OD450; ELISA absorbance at 450 nm [13]: 0.15 OD450; ELISA absorbance at 450 nm [14]: 0.15 OD450; ELISA absorbance at 450 nm [15]: 0.14 OD450; ELISA absorbance at 450 nm [16]: 0.15 OD450; ELISA absorbance at 450 nm [17]: 0.16 OD450; ELISA absorbance at 450 nm [18]: 0.14 OD450; ELISA absorbance at 450 nm [19]: 0.14 OD450; ELISA absorbance at 450 nm [20]: 0.18 OD450; ELISA absorbance at 450 nm [21]: 0.15 OD450; ELISA absorbance at 450 nm [22]: 0.18 OD450; ELISA absorbance at 450 nm [23]: 0.15 OD450; ELISA absorbance at 450 nm [24]: 0.13 OD450; ELISA absorbance at 450 nm [25]: 0.16 OD450; ELISA absorbance at 450 nm [26]: 0.18 OD450; ELISA absorbance at 450 nm [27]: 0.15 OD450; ELISA absorbance at 450 nm [28]: 0.14 OD450; ELISA absorbance at 450 nm [29]: 0.15 OD450; ELISA absorbance at 450 nm [30]: 0.15 OD450; ELISA absorbance at 450 nm [31]: 0.13 OD450; ELISA absorbance at 450 nm [32]: 0.17 OD450; ELISA absorbance at 450 nm [33]: 0.13 OD450
